According to IntAct's records for PubMed 25684205:

B1: Kelch repeat and BTB domain-containing protein 7 (Homo sapiens), Q8WVZ9 (parent)
chain: MQSREDVPRSRRLASPRGGRRPKRISKPSVSAFFTGPEELKDTAHSAALLAQLKSFYDARLLCDVTIEVVTPGSGPGTGRLFSCNRNVLAAACPYFKSMFTGGMYESQQASVTMHDVDAESFEVLVDYCYTGRVSLSEANVQRLYAASDMLQLEYVREACASFLARRLDLTNCTAILKFADAFDHHKLRSQAQSYIAHNFKQLSRMGSIREETLADLTLAQLLAVLRLDSLDIESERTVCHVAVQWLEAAAKERGPSAAEVFKCVRWMHFTEEDQDYLEGLLTKPIVKKYCLDVIEGALQMRYGDLLYKSLVPVPNSSSSSSSSNSLVSAAENPPQRLGMCAKEMVIFFGHPRDPFLCYDPYSGDIYTMPSPLTSFAHTKTVTSSAVCVSPDHDIYLAAQPRKDLWVYKPAQNSWQQLADRLLCREGMDVAYLNGYIYILGGRDPITGVKLKEVECYSVQRNQWALVAPVPHSFYSFELIVVQNYLYAVNSKRMLCYDPSHNMWLNCASLKRSDFQEACVFNDEIYCICDIPVMKVYNPARGEWRRISNIPLDSETHNYQIVNHDQKLLLITSTTPQWKKNRVTVYEYDTREDQWINIGTMLGLLQFDSGFICLCARVYPSCLEPGQSFITEEDDARSESSTEWDLDGFSELDSESGSSSSFSDDEVWVQVAPQRNAQDQQGSL
B2: Kelch repeat and BTB domain-containing protein 6 (Homo sapiens), Q86V97 (parent)
chain: MQSREDAPRSRRLASPRGGKRPKKIHKPTVSAFFTGPEELKDTAHSAALLAQLKSFYDARLLCDVTIEVVTPGSGPGTGRLFPCNRNVLAAACPYFKSMFTGGMYESQQASVTMHDVDAESFEVLVDYCYTGRVSLSEANVERLYAASDMLQLEYVREACASFLARRLDLTNCTAILKFADAFGHRKLRSQAQSYIAQNFKQLSHMGSIREETLADLTLAQLLAVLRLDSLDVESEQTVCHVAVQWLEAAPKERGPSAAEVFKCVRWMHFTEEDQDYLEGLLTKPIVKKYCLDVIEGALQMRYGDLLYKSLVPVPNSSSSSSSSNSLVSAAENPPQRLGMCAKEMVIFFGHPRDPFLCCDPYSGDLYKVPSPLTCLAHTRTVTTLAVCISPDHDIYLAAQPRTDLWVYKPAQNSWQQLADRLLCREGMDVAYLNGYIYILGGRDPITGVKLKEVECYNVKRNQWALVAPLPHSFLSFDLMVIRDYLYALNSKRMFCYDPSHNMWLKCVSLKRNDFQEACVFNEEIYCICDIPVMKVYNPVRAEWRQMNNIPLVSETNNYRIIKHGQKLLLITSRTPQWKKNRVTVYEYDIRGDQWINIGTTLGLLQFDSNFFCLSARVYPSCLEPGQSFLTEEEEIPSESSTEWDLGGFSEPDSESGSSSSLSDDDFWVRVAPQ

Variants of: B1
Settings: with tiam1_human TIAM1, Q13009
Target sequence in this assay (Q13009 whole entry): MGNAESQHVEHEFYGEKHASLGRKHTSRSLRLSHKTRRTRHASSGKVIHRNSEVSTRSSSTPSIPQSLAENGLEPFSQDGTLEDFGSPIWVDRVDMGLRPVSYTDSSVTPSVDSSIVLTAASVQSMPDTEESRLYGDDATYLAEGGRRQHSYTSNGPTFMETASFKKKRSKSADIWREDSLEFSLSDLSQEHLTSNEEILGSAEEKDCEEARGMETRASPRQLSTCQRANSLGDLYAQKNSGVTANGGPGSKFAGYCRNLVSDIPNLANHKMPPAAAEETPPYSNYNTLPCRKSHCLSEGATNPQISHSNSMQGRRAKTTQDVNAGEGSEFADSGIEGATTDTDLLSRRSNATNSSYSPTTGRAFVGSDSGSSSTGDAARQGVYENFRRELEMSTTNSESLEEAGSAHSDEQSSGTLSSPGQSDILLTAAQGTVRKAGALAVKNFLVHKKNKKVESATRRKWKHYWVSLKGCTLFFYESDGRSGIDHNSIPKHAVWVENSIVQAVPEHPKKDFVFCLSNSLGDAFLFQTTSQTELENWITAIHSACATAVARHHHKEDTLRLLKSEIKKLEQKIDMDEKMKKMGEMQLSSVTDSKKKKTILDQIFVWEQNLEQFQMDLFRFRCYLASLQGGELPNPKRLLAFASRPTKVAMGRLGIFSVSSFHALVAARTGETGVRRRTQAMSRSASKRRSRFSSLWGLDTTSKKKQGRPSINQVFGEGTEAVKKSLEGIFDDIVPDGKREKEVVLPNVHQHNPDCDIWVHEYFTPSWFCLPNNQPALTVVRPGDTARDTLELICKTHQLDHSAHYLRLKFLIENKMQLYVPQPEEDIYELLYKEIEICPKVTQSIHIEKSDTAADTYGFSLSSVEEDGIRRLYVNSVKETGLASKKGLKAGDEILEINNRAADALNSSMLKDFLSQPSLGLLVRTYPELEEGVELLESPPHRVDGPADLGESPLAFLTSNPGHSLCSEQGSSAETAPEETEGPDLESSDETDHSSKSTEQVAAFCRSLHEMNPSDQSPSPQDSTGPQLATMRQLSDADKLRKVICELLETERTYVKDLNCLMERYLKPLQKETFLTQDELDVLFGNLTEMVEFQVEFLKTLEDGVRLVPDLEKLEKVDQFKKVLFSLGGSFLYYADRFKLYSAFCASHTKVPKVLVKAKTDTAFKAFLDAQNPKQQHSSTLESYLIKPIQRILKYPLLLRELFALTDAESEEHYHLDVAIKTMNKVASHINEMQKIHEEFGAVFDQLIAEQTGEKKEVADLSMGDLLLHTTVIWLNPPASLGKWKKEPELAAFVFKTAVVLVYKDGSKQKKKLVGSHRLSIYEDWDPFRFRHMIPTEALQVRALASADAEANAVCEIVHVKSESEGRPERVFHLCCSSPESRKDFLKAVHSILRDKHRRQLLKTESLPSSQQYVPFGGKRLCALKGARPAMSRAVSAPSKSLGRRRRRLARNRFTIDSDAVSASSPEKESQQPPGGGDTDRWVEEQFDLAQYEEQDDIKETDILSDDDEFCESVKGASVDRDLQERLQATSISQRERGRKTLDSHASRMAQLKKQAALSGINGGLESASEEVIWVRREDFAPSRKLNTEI

| effect of a mutation on the interaction | Variant |
| --- | --- |
| decreasing interaction strength | W668A |
| with no effect | M99A |

Variants of: B1
Settings: with gbrap_human GABARAP

| effect of a mutation on the interaction | Variant |
| --- | --- |
| decreasing interaction strength | W668A |
| with no effect | F122A |
| with no effect | Y559A |
| with no effect | F649A |

Variants of: B1
Settings: with gbrl2_human GABARAPL2, P60520
gbrl2_human GABARAPL2, P60520, sequence (P60520 whole entry): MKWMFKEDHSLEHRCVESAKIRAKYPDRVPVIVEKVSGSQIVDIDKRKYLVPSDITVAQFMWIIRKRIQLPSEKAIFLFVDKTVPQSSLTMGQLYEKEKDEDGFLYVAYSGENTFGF

| effect of a mutation on the interaction | Variant |
| --- | --- |
| with no effect | W668A |
| with no effect | F122A |
| with no effect | Y559A |
| with no effect | F649A |

Variants of: B1
Settings: with mlp3b_human MAP1LC3B

| effect of a mutation on the interaction | Variant |
| --- | --- |
| disrupting interaction strength | W668A |
| with no effect | F122A |
| with no effect | Y559A |
| with no effect | F649A |

Variants of: B1
Settings: with cul3_human CUL3, Q13618

| effect of a mutation on the interaction | Variant |
| --- | --- |
| disrupting interaction strength | M99A |

Variants of: B2
Settings: with tiam1_human TIAM1, Q13009
Target sequence in this assay (Q13009 whole entry): as the sequence (Q13009 whole entry) above

| effect of a mutation on the interaction | Variant |
| --- | --- |
| decreasing interaction strength | W668A |

Variants of: B2
Settings: with cul3_human CUL3, Q13618

| effect of a mutation on the interaction | Variant |
| --- | --- |
| disrupting interaction strength | M99A |
